Source: patent EP4361176A1
Changes are numbered by the printed parent chain.

T1: hCTLA4-His-BAP (human)
T1 sequence (chain, biotin on the BAP-tag): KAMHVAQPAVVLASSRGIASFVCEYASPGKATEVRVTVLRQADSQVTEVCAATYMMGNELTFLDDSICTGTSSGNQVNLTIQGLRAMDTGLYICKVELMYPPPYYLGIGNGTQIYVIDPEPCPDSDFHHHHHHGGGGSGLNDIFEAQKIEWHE

B1: ABAM001 (antibody, human IgG1, V domains shown)
VH: EVQLVESGGDLVKPGGGLRLSCAASGFTFSSYTMHWVRQAPGKGLEWVSSISSRSRYKYYADSVKGRFTISRDNAKNSLYLQMNSLRAEDTAVYYCARFGIKNKRNWVLDYWGQGTLVTVSS
VL: QSALTQPPSASGSPGQTVTISCTGTSTDVGAYNYVSWYQQHPGKAPKLMIYQVSKRPSGVPDRFSGSKSGNTASLTVSGLQAEDEADYFCSLYTTRPQLAFGGGTKLTVL
B2: ABAM003 (antibody, human IgG1, V domains shown)
VH: B1 VH with S31G, K58A, Y59S, K104H, R105L, L109F
VL: QSALTQPPSASGSPGQTVTISCTGTSSDVGDYNYVSWYQQHPGKAPKLMIYGVSKRPSGVPDRFSGSKSGNTASLTVSGLQAEDEADYFCSTVSTSHSPVFGGGTKLTVL
B3: ABAM006 (antibody, human IgG1, V domains shown)
VH: B1 VH with S31T, R56G, Y57H, K58A, Y59H, I101R, N103K, N106L, L109F
VL: B1 VL with A31F, V53N, L92T, Y93N, T94R, T95A, R96A, P97R, Q98S, L99V
B4: ABAM005 (antibody, human IgG1, V domains shown)
VH: EVQLVESGGDLVKPGGGLRLSCAASGFTFSGYTMNWVRQAPGKGLEWVSSISSRSNYISYADSVKGRFTISRDNAKNSLYLQMNSLRAEDTAVYYCARYGALNHMLWVFDYWGQGTLVTVSS
VL: B1 VL with Q52S, V53T, T94R, T95Y, R96A, P97Q, Q98G, L99V, A100V
B5: ABAM002 (antibody, human IgG1, V domains shown)
VH: B4 VH with G31S, N56T, I58A, S59H, Y99F, A101G, L102R, N103G, M105L
VL: B2 VL with S27T, D31T, G52Q, V53G, T95G, S96D, H97F, S98H, P99V, V100A
B6: 04H1654-KT462/04L1610-lam1//04H1656-HT441/04L1610-lam1 (antibody, human IgG1, lambda)
heavy 1: QVQLVESGGGVVQPGGSLRLSCAASGFTFSSKTMNWVRQAPGKGLEWVSSISTQSHYIYYARSVRGRFTISRDNAKNSLYLQMNSLRAEDTAVYYCARYGKREDMLWVFDYWGQGTLVTVSSASTKGPSVFPLAPSSKSTSGGTAALGCLVKDYFPEPVTVSWNSGALTSGVHTFPAVLQSSGLYSLSSVVTVPSSSLGTQTYICNVNHKPSNTKVDKRVEPKSCDKTHTCPPCPAPEFQWGPMVFLFPPKPKDVLMISRTPEVTCVVVDVSDEEPEVKFNWYVDGVEVHNAKTKPREEQYNATYRVVSVLPVLHQDWLNGKEYKCKVSNDALPAPIEKTISKAKGQPREPQVYTLPPSRKEMTKNQVSLTCLVKGFYPSDIAVEWESNGQPENNYKTTPPVLDSDGSFFLYSKLTVDKSRWQQGNVFSCSVMHEALHNHYTQKSLSLSP
heavy 2: B6 heavy 1 with R62E, K101A, F239L, Q240L, W241A, M244S, D273H, K339E, K361E, K444E
light: QSALTQPPSASGSPGQSVTISCEGPSTGVGDYNWVHWYQQHPGKAPKLMIYFTSKKPSGVPDRFSGSKSGNTASLTVSGLQAEDEADYYCQTYAAPLGPMFGGGTKLTVLGQPKAAPSVTLFPPSSEELQANKATLVCLISDFYPGAVTVAWKADSSPVKAGVETTTPSKQSNNKYAASSYLSLTPEQWKSHRSYSCQVTHEGSTVEKTVAPTECS
B7: 04H1654-KT473/04L1610-lam1//04H1656-HT451/04L1610-lam1 (antibody)
heavy 1: B6 heavy 1 with N439A, Y441T, Q443R, S445E
heavy 2: QVQLVESGGGVVQPGGSLRLSCAASGFTFSSKTMNWVRQAPGKGLEWVSSISTQSHYIYYAESVRGRFTISRDNAKNSLYLQMNSLRAEDTAVYYCARYGAREDMLWVFDYWGQGTLVTVSSASTKGPSVFPLAPSSKSTSGGTAALGCLVKDYFPEPVTVSWNSGALTSGVHTFPAVLQSSGLYSLSSVVTVPSSSLGTQTYICNVNHKPSNTKVDKRVEPKSCDKTHTCPPCPAPELLAGPSVFLFPPKPKDVLMISRTPEVTCVVVDVSHEEPEVKFNWYVDGVEVHNAKTKPREEQYNATYRVVSVLPVLHQDWLNGKEYKCKVSNDALPAPIEETISKAKGQPREPQVYTLPPSREEMTKNQVSLTCLVKGFYPSDIAVEWESNGQPENNYKTTPPVLDSDGSFFLYSKLTVDKSRWQQGNVFSCSVMHEALHAHTTREELSLSP
light: B6 light
B8: 04H1389-G1m/04L1086-lam1 (antibody, human IgG1, lambda, V domains shown)
VH: EVQLVESGGGLVKPGGSLRLSCAASGFTFSSKTMNWVRQAPGKGLEWVSSISTQSHYIYYAESVKGRFTISRDNAKNSLYLQMNSLRAEDTAVYYCARYGKREDMLWVFDYWGQGTLVTVSS
VL: QSALTQPPSASGSPGQTVTISCDGPSTGVGDYNYVHWYQQHPGKAPKLMIYFTSKKPSGVPDRFSGSKSGNTASLTVSGLQAEDEADYFCQTYAAPLGPMFGGGTKLTVLG
B9: 04H1382-G1m/04L1086-lam1 (antibody, human IgG1, lambda, V domains shown)
VH: B8 VH with E62R
VL: B8 VL

Experiments:
hCTLA4-His-BAP (human) [1] = target: T1, hCTLA4-His-BAP (human); assay: IgG ELISA, 2.5 ug/mL IgG, no AMP
hCTLA4-His-BAP (human) [2] = target: T1, hCTLA4-His-BAP (human); assay: IgG ELISA, absorbance with / without AMP
hCTLA4-His-BAP (human) [3] = target: T1, hCTLA4-His-BAP (human); assay: IgG ELISA, 2.5 ug/mL IgG, 1 mM AMP; overflow set to 5.00
hCTLA4-His-BAP (human) [4] = target: T1, hCTLA4-His-BAP (human); assay: IgG ELISA, 2.5 ug/mL IgG, 1 mM AMP
[5] = target: human FcγRIIb extracellular domain with C-terminal His-tag (human) (UniProt P31994); assay: SPR; binding amount / that of 04H1656-G1m/04L1610-lam1
[6] = target: human FcγRIIb extracellular domain with C-terminal His-tag (human) (UniProt P31994); assay: SPR (Biacore T200), FcγRIIb, amount bound per unit captured antibody
[7] = target: human CTLA4 (soluble analyte of the Biacore assays of Reference Example 3-3) (human) (UniProt P16410); assay: SPR Biacore T200, 10 uM ATP

Sequence of human FcγRIIb extracellular domain with C-terminal His-tag (human) (P31994 43-217): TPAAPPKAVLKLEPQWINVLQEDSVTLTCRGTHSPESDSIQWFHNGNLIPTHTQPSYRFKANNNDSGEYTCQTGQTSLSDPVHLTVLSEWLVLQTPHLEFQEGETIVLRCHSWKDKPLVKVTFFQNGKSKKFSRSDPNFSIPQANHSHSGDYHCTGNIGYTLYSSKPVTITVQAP

Binder	450 nm Absorbance (hCTLA4-His-BAP (human) [1])	S/N (hCTLA4-His-BAP (human) [2])	450 nm Absorbance (hCTLA4-His-BAP (human) [3])	other results
B1	3.46	> 1.45	> 5	
B2	3.18	> 1.57	> 5	
B3	0.776	3.86		450 nm Absorbance (hCTLA4-His-BAP (human) [4]): 3
B4	0.069	4.46		450 nm Absorbance (hCTLA4-His-BAP (human) [4]): 0.303
B5	0.139	> 36	> 5	
B6				Relative binding amount [5]: 1.7; Binding amount [6]: 0.014
B7				Relative binding amount [5]: 1.5; Binding amount [6]: 0.012
B8				fold enhanced binding vs parent 04H1207-G1m/04L1086-lam1 [7]: 10 fold
B9				fold enhanced binding vs parent 04H1208-G1m/04L1086-lam1 [7]: 10 fold
